Data: the DeepSol protein solubility set

assay: soluble on expression in E. coli; label from the status in PepcDB or PDB records

| Sequence | soluble on expression in E. coli |
| --- | --- |
| MAHHHHHHMYADDLSIIVKGQSREDAIPTANMVLKKLHAWSQENGLAISPSKCEAAWFTLSTHTESDYDREGKRPLVVAGCEIPVMTMGASRTTKLLGMDLDPRLTLNVAASKQCAASSQRISQLRCIAHKEAGPSPHDLRMFVIGYGASKLRYGSELIWAVATDSAKNEMQKTYATLARIVSGVPSTVDPESALLEANMPPLHVLCLRARLSIFENTRACQMDWMRRPPPEPPPRAVFRISPLSRDELYAFVDAYTKEYGITQSSPREERFFRSSIPPWFAASAHRVTIGVELPTDHSITEEQLIREKRRVSEEALALHSHRSWILAKSGGVDVPKSAGVGILLSSLNSSEIIEKASINCGARPCSYRTESRALLLALERLIIPRIQHRHETLLVVADSQSLLAALNKGPLSQTDWTEDQIWQRLLTLTCAGWSVRLQFFTDIVEYMLTSLRISMRRRLWRLDNTRSMESHIYGIRIC | not soluble |
| MAHHHHHHMYLCWNDTFLTSFALDTLLSKLVAEVCEKRPVSSRQVLELMREALETQKMQQWYYSETVRSFNDAVNSLSRRGFPLQMACPLYFRIPQEDGGVHELFRYGSEIAVTPNNYDHFEHMLKRYQAVVNGELSQEGYYDAVRHLLPISAHCNLLNSSYTPIINFLQECLLNPRSQWAIQSSSVWDQLGVTYAVPFAGRLFAVDPTKPVTALVSFEDANRYVEMASERCRTLSSLLTTGASLNVVRRAAAAAASPPSASSGRAAVKLAPSTIPVASSAATSEEARKWEAFEAIGLRPEVFSDMSPAEIEFWKYILRLRESPSQIHDISFHLEFGPHHMDLKENGRFIPVTRLNLNQFIEAVVAKQDEVHRYINEVALVTPTHSNASRDAGGGGEGSAGPPPPPVAASNTAAAQAMPAPQQDIKIPAQPPPRTIGSEATSPVGHAQSEAHRDNEAHLTLRDVDSTVVRSIMELRSQYQLGRLTKTELNARQLRFCLPCRDGVYNLIPNGRHIQVATGNIGIFLQYVEEEKKRVEALSGGKSEDSAARACSHAPEATTGGTGSLNVIQRDRERVYGAVEAADADAGYWTDKNVLDIWTYECTTACLLKSSMSPEEIVRQTQLQWDTNFLSRKDCPYANASEDGCVILPKDVKTYLRLLRRRLQSIRLAILDAGKCPQEPSEWDVGEWDVVNPSTPPLEFEVPASVHAIPSAPENLTMFSPTHNTGGLLAPSQSLYL | not soluble |
| MAHHHHHHMYLHVMKVACTPDERHCENSVNPSSSSTLPSATTSSSCPVEHGVPDEESRFTRLYEAAVENESALRVGNYTRRLLFDEFCATSDATRQASQPTCRMLRQRHPALRSLSLSVEGMHSAGADRTSATQLPADSTMSAAESLQAYLSPALSAWRCASQEPFASSAQVAAAAPLPTSAVASDVRPRSPLPLHIDESDAPVDEGAHGEGLEALYMDVFDQEGPANNHEVAVNAAYTREREAADRAALLSAQQATMAGCPCGFTARGSTPSADVSLSNASSLLPEEDDISLVLQPVLGGVAQRRGRGIRVHLESEPSVTTSSSMVDASFLQAGRETTTLTCAVCELSGVVGDPHRTCIDAVELQEEDELHPCGTCGALVHSYCACPGTTADTHYCCNPCCPGGGTV | not soluble |
| MAHHHHHHMYQGRSQQPLWTPPPNFSQVETGIYRSAYPTLASVPFLHHIGIKTIVLLSIELLPVPVVRAISEGDVVAGTTSVSDDVHAWKDNECIKWPIRIVSTADLSEWMNEYVCAKDDFAVSSVQRALDFALQPDFQPVLFTCPTGELQTSVIVGCMRRHQGWSLAAVLAECELFVNVTGGVRQSVMNFIEQWDPDEHPVREEDIAKRKRELLLRDPSLSYSVKRHRRTVTHSASDPDSEYDDPLAMGTSRLGQKGTAGNSAGMGLSLSPYKSSGFDRSTLSSTRVGGDELGLSHSSHVVIKLASWYTAAMKRRAAAAEAIVAARAKVRAPSDPLPEPHERYFGVLNPPALDERSTFTKKSIVQDLD | not soluble |
| MAHHHHHHMYTHTHTHTHTHTCTHMYLSSTLHRVFSPLVASPPQKEVGSKSNARGGKRVWRKGLASWEPQAGTHAHAHAQTDAEGYLQRTRRKPRPPAHASSLSPPLLLGRSRMGYTRERTNRHFFVSRANAFFSRLPISRIQRALAMEAIKKGSMKPWKHTKEQIIGSPITCNFEYNPRPVRLIGTVMDAHTEETSIKGGLKVYARSEEANMMLWIPAGNPKLKYEVTAAKGSFEHYLDERSKWDEAWLTGRARMK | soluble |
| MAHHHHHHPPKRAALIQNLRDSYTETSSFAVIEEWAAGTLQEIEGIAKAAVEAHATIRNSTYGRAQAEKSPEQLLGVLQRYQDLCHNVYCQAETIRTVIAIRIPEHKEADNLGVAVQHAVLKVIDELEIKTLGSGEKSGSGGAPTPIGMYALREYLSARSTVEDKLLGSVDAESGKTKGGSQSPSLLLELRQIDADFMLKVELATTHLSTMVRAVINAYLLNWKKLIQPRGGHLDVLYR | soluble |
| MAHHHHHHSLTTDLPAAYHIEQRAHAFPWSEKTFASNQGERYLNFQLTQNGKMAAFAITQVVLDEATLFNIAVDPDYQRQGLGRALLEHLIDELEKRGVATLWLEVRASNAAAIALYESLGFNEATIRRNYYPTTDGREDAIIMALPISMEG | not soluble |
| MAHHHHHHSSGLEVLFQGPEPKKYAVTDDYQLSKQVLGLGVNGKVLECFHRRTGQKCALKLLYDSPKARQEVDHHWQASGGPHIVCILDVYENMHHGKRCLLIIMECMEGGELFSRIQERGDQAFTEREAAEIMRDIGTAIQFLHSHNIAHRDVKPENLLYTSKEKDAVLKLTDFGFAKETTQNALQTPCYTPYYVAPEVLGPEKYDKSCDMWSLGVIMYILLCGFPPFYSNTGQAISPGMKRRIRLGQYGFPNPEWSEVSEDAKQLIRLLLKTDPTERLTITQFMNHPWINQSMVVPQTPLHTARVLQEDKDHWDEVKEEMTSALATMRVDYDQV | soluble |
| MAHHHHHHVREEKLRLRKQIIEHMNSLSKERYTTLSEQIVFSLYEQKEWAEAKTIGITLSMENEVNTYPIIEKAWKEGKRVVVPKCNKETRTMSFRQISNFDQLETVYMNLREPIPALTEEVNADEIDLQIVPGVAYTERGERIGYGGGYYDRYLVHYKGKTLSLAYSFQMVEHIPVEPFDKNVEKIITEKGTMVKNGLV | soluble |
| MAHTITIVGLGNYGIDDLPLGIYKFLKTQDKVYARTLDHPVIESLQDELTFQSFDHVYEAHDQFEDVYNDIVAQLVEAANEKDIVYAVPGHPRVAETTTVKLLALAKDNTDIDVKVLGG | soluble |
| MAHVVILGAGTGGMPAAYEMKEALGSGHEVTLISANDYFQFVPSNPWVGVGWKERDDIAFPIRHYVERKGIHFIAQSAEQIDAEAQNITLADGNTVHYDYLMIATGPKLAFENVPGSDPHEGPVQSICTVDHAERAFAEYQALLREPGPIVIGAMAGASAFGPAYEYAMIVASDLKKRGMRDKIPSFTFITSEPYIGHLGIQGVGDSKGILTKGLKEEGIEAYTNCKVTKVEDNKMYVTQVDEKGETIKEMVLPVKFGMMIPAFKGVPAVAGVEGLCNPGGFVLVDEHQRSKKYANIFAAGIAIAIPPVETTPVPTGAPKTGYMIESMVSAAVHNIKADLEGRKGEQTMGTWNAVCFADMGDRGAAFIALPQLKPRKVDVFAYGRWVHLAKVAFEKYFIRKMKMGVSEPFYEKVLFKMMGITRLKEEDTHRKAS | soluble |
| MAHYPPSKDQLNELIQEVNQWAITNGLSMYPPKFEENPSNASVSPVTIYPTPIPRKCFDEAVQIQPVFNELYARITQDMAQPDSYLHKTTEALALSDSEFTGKLWSLYLATLKSAQYKKQNFRLGIFRSDYLIDKKKGTEQIKQVEFNTVSVSFAGLSEKVDRLHSYLNRANKYDPKGPIYNDQNMVISDSGYLLSKALAKAVESYKSQQSSSTTSDPIVAFIVQRNERNVFDQKVLELNLLEKFGTKSVRLTFDDVNDKLFIDDKTGKLFIRDTEQEIAVVYYRTGYTTTDYTSEKDWEARLFLEKSFAIKAPDLLTQLSGSKKIQQLLTDEGVLGKYISDAEKKSSLLKTFVKIYPLDDTKLGREGKRLALSEPSKYVLKPQREGGGNNVYKENIPNFLKGIEERHWDAYILMELIEPELNENNIILRDNKSYNEPIISELGIYGCVLFNDEQVLSNEFSGSLLRSKFNTSNEGGVAAGFGCLDSIILY | soluble |
| MAIALSTLVEEADRYLDAARIQDYCPNGLQVEGRPQVRRIVSGVTASQALLDAAVEADADVVLVHHGYFWKGENPCVVGMKQRRLKTLLNNDISLLAYHLPLDLHPEVGNNVQLARQLGFEVEGPLEPGNPRSIVLLGSLAEPMQPADFARHVRDALGREPLLVDAGQPIRRIAWCTGGAQGYIDQAIAAGVDAYLTGEVSEQTVHSARENGISFIAAGHHATERYGVQALGDYLGKRFAIEHLFIDCPNPALEHHHHHH | soluble |
| MAIERIQLHTHGDDRGLLISLEQQRNVPFEIRRVYYIFGTRQGVHRGQHAHRQLNQLAVALHGSVTLLLDEGQGQGPEEVVLDDPSQGVLLGRMVWRDLHQFSEDCVLMVLADQYYDPGDYILDYDEFLTEARGVSRLEALEHHHHHH | soluble |
| MAIIPKNYARLESGYREKALKIYPWVCGRCSREFVYSNLRELTVHHIDHDHTNNPEDGSNWELLCLYCHDHEHSKYTEADQYGTTVIAGEDAQKDVGEAKYNPFADLKAMMNKKK | not soluble |
| MAIKDAIEKIVSYFDADEVTDHEDVAKERPVKVQKTEQTPSQQQRKPERPQETVPPRRQHIKSDVQETQVLRSLSLSRSQVNQGSQQMNTTKTTIAIKYPKKYEDAQEIVELLIENECVLIDFQYMLEAQARRCLDFIDGASKVLTGNLQKVGSSMYLLTPINVVVDIEEIGLSHGNQESTFDFDMKRRLEHHHHHH | not soluble |
| MAIQTSNLGYPRIGLQREWKKTLEAFWSNKINEEQFLTTMKEIRLQHVKVQQEKGIELIPIGDFTYYDHVLDTAYMLGFIPSRFSEFTSYLDVYFAMARGSKDHVASEMTKWFNTNYHYIVPEYEEGLQISLKDNRPLRLYEEAKQELGVDGKPVILGPYTFLKLAKGYTQEQFATILKQLVAPYVQLLSELHAAGAQIIQVDEPIFASLTKEEVQQAKEIYEAIRKEVPNATLLLQTYFDSVEENYEEIITFPVSSIGLDFVHGKEGNLNAISKYGFPADKTLAVGCIDGRNIWRADLDEVLTLFTTLQKQVQTKDLIVQPSCSLLHTPIDKTEETHLSTELFDALAFANQKLEELVLIHSALTQGTESISNELETYRNVHHTIRSSAARNREDVKAARTALKEEDFSRPLPFEKRYELQQVALKLPLLPTTTIGSFPQTTEVRQTRKEWRNGIISNEQYEQFIEKETEKWIRYQEEIGLDVLVHGEFERTDMVEYFGERLAGFSFTKNGWVQSYGSRCVKPPVIYGDVAFINGMTIKETVYAQSLTEKVVKGMLTGPVTILNWSFVRNDIPRKEVSYQIALALRHEIELLESSGIRVIQVDEPALREGMPLKEKDWDAYITWAVQSFLLATSSVANETQIHTHMCYSNFEDIVDAIRALDADVISIETSRSHGEFIDTLKHTTYEKGIGLGVYDIHSPRVPSKDEMYKIVEQSLQVCDPKYFWINPDCGLKTRRTEEVIPALEHMVQAAKDARSLLKTNA | not soluble |
| MAITINIYYSGTNGGAREFAKEMIASGIVEAIRAEKGNSRYEYFFPMDDEETVLLIDSWTDQEALDKHHASPMMTRITELREKYDLHMKVERYVSDVTDPLTKDAAFIRK | not soluble |
| MAIVPFKRDPTFYPSPKMAMKAPPEDLAYVACLYTGTGINRADFIAVVDVNPKSETYSKIVHKVELPYINDELHHFGWNACSSALCPNGKPNIERRFLIVPGLRSSRIYIIDTKPNPREPKIIKVIEPEEVKKVSGYSRLHTVHCGPDAIYISALGNEEGEGPGGILMLDHYSFEPLGKWEIDRGDQYLAYDFWWNLPNEVLVSSEWAVPNTIEDGLKLEHLKDRYGNRIHFWDLRKRKRIHSLTLGEENRMALELRPLHDPTKLMGFINMVVSLKDLSSSIWLWFYEDGKWNAEKVIEIPAEPLEGNLPEILKPFKAVPPLVTDIDISLDDKFLYLSLWGIGEVRQYDISNPFKPVLTGKVKLGGIFHRADHPAGHKLTGAPQMLEISRDGRRVYVTNSLYSTWDNQFYPEGLKGWMVKLNANPSGGLEIDKEFFVDFGEARSHQVRLSGGDASSDSYCYP | soluble |
